From article PMC10689503, “CaMKK2 and CHK1 phosphorylate human STN1 in response to replication stress to protect stalled forks from aberrant resection”

Experiments:
Conditions in all cases: protein: recombinant;recombinant;recombinant; copies: 1;1;1; label: 5'-Cy3 on Oligo 2; 25 bp duplex; 5' overhang 35 nt on strand 1
[1] = target: CTC1;STN1 WT;TEN1 (human;human;human, UniProt Q2NKJ3;Q9H668;Q86WV5 1-1217;1-368;1-123, ||); assay: EMSA; EMSA: 60 nM DNA, 35 mM Tris-HCl pH 7.5, 1 mM DTT, 100 ng/uL BSA, 50 mM KCl, 37 C, 5 min; 0.8% agarose, 1x TBE, 4 C
[2] = target: CTC1;STN1 S96D;TEN1 (human;human;human, UniProt Q2NKJ3;Q9H668;Q86WV5 1-1217;1-368;1-123, |S96D|); assay: EMSA; affinity comparable to WT-CST; EMSA: 60 nM DNA, 35 mM Tris-HCl pH 7.5, 1 mM DTT, 100 ng/uL BSA, 50 mM KCl, 37 C, 5 min; 0.8% agarose, 1x TBE, 4 C
[3] = target: CTC1;STN1 S96A;TEN1 (human;human;human, UniProt Q2NKJ3;Q9H668;Q86WV5 1-1217;1-368;1-123, |S96A|); assay: as above

Measured: binding result

CTC1;STN1 S96A;TEN1, sequence (Q2NKJ3 whole entry, chain 1 of 3): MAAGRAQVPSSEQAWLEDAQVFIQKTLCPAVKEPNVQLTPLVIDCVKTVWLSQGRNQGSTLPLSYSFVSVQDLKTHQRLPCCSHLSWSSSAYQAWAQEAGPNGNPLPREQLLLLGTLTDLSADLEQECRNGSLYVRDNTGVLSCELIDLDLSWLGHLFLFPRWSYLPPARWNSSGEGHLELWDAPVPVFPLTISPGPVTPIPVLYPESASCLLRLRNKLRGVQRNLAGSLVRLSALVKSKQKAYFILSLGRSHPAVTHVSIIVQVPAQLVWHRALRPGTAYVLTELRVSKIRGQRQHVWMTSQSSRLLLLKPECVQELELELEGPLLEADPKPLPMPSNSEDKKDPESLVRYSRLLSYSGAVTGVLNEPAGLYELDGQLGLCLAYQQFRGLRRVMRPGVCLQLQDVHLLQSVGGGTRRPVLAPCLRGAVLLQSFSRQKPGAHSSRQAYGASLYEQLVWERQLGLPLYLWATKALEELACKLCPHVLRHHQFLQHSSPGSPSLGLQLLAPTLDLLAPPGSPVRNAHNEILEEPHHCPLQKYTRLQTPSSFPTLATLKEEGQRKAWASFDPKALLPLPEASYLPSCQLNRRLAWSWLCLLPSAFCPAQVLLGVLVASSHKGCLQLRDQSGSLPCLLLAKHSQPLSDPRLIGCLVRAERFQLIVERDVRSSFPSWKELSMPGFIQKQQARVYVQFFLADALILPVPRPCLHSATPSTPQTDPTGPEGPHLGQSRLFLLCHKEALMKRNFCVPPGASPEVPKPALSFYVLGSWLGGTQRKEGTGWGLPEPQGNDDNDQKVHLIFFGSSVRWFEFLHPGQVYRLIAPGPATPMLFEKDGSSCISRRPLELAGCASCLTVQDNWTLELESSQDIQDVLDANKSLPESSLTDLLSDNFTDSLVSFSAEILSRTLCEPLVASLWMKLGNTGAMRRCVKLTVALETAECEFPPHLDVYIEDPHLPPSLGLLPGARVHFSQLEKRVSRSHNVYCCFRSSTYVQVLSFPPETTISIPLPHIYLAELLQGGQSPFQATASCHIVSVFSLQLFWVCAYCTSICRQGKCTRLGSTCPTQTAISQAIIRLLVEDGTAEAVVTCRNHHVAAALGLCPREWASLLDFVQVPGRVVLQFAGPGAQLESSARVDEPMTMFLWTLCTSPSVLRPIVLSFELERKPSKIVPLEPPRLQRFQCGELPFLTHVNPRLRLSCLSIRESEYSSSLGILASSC
CTC1;STN1 S96A;TEN1, sequence (Q9H668 whole entry S96A, chain 2 of 3): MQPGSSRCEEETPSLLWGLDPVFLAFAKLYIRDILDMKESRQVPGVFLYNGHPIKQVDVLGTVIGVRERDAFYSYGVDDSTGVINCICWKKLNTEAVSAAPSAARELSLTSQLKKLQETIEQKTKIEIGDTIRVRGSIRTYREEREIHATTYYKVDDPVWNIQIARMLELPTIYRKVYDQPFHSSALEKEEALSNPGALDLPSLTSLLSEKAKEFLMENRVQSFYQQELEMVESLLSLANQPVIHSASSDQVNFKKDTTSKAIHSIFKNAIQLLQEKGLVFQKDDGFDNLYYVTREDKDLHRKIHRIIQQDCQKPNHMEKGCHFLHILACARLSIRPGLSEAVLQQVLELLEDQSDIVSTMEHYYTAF
CTC1;STN1 S96A;TEN1, sequence (Q86WV5 whole entry, chain 3 of 3): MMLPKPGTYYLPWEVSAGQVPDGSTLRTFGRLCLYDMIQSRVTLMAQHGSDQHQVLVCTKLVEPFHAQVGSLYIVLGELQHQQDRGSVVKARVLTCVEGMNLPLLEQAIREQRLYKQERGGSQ
CTC1;STN1 S96D;TEN1, sequence (Q2NKJ3 whole entry, chain 1 of 3): as the sequence (Q2NKJ3 whole entry, chain 1 of 3) above
CTC1;STN1 S96D;TEN1, sequence (Q9H668 whole entry S96D, chain 2 of 3): as the sequence (Q9H668 whole entry S96A, chain 2 of 3) above, with A96D counted along it
CTC1;STN1 S96D;TEN1, sequence (Q86WV5 whole entry, chain 3 of 3): as the sequence (Q86WV5 whole entry, chain 3 of 3) above
CTC1;STN1 WT;TEN1, sequence (Q2NKJ3 whole entry, chain 1 of 3): as the sequence (Q2NKJ3 whole entry, chain 1 of 3) above
CTC1;STN1 WT;TEN1, sequence (Q9H668 whole entry, chain 2 of 3): as the sequence (Q9H668 whole entry S96A, chain 2 of 3) above, with A96S counted along it
CTC1;STN1 WT;TEN1, sequence (Q86WV5 whole entry, chain 3 of 3): as the sequence (Q86WV5 whole entry, chain 3 of 3) above

B1: Cy3-labeled 5' overhang DNA (Oligo 1 + Oligo 2) (mixed)
DNA 1: ACGCTGCCGAATTCTACCAGTGCCTTGCTAGGACATCTTTGCCCACCTGCAGGTTCACCC
DNA 2: GGGTGAACCTGCAGGTGGGCAAAGA
modifications: Oligo 1: phosphorothioate bonds at both ends (after nt 1-5 and as printed around the last 4 nt)
binds: all assays above
